Molecular target: hexon protein of recombinant chimpanzee adenovirus C68 (AdC68), free hexon trimer (AEX-HPLC "impurity" peak) (chimpanzee adenovirus C68)
Experiment: native MS; native SEC-HPLC/MS of the AEX-HPLC "impurity" fraction; BEH SEC 200Å column, isocratic 40 mM ammonium formate, 25°C; Orbitrap EMR, gentle source parameters to keep non-covalent complexes assembled

hexon protein of recombinant chimpanzee adenovirus C68 (AdC68), free hexon trimer (AEX-HPLC "impurity" peak) (natural protein)
stoichiometry N: 3

Reference: article PMC9017566
